For one substance, binding signal (fraction of WT) results are on record in patent US20210340562.

Holding throughout (assay): EMSA
In data set [1] the test system is R2Bm GR/AD/A mutant GR/AD/A (double point, presumptive alpha-finger). The conditions noted are these: 3' PBM RNA; reduced 24%; with 5' PBM RNA reduced about 13%.
Data set [2] relates to R2Bm SR/AGR/A mutant SR/AGR/A (double point, presumptive alpha-finger). Particulars: 3' PBM RNA (upstream binding); increased up to 32%.
Data set [3] concerns R2Bm SR/AIR/A mutant SR/AIR/A (double point, presumptive alpha-finger). Particulars: 3' PBM RNA; reduced 13%; with 5' PBM RNA reduced 19-28%.
The target of a further data set is R2Bm protein (WT) (UniProt V9H052). Particulars: 3' or 5' PBM RNA; reference.
Sequence of UniProt V9H052 (V9H052 entry or part of it): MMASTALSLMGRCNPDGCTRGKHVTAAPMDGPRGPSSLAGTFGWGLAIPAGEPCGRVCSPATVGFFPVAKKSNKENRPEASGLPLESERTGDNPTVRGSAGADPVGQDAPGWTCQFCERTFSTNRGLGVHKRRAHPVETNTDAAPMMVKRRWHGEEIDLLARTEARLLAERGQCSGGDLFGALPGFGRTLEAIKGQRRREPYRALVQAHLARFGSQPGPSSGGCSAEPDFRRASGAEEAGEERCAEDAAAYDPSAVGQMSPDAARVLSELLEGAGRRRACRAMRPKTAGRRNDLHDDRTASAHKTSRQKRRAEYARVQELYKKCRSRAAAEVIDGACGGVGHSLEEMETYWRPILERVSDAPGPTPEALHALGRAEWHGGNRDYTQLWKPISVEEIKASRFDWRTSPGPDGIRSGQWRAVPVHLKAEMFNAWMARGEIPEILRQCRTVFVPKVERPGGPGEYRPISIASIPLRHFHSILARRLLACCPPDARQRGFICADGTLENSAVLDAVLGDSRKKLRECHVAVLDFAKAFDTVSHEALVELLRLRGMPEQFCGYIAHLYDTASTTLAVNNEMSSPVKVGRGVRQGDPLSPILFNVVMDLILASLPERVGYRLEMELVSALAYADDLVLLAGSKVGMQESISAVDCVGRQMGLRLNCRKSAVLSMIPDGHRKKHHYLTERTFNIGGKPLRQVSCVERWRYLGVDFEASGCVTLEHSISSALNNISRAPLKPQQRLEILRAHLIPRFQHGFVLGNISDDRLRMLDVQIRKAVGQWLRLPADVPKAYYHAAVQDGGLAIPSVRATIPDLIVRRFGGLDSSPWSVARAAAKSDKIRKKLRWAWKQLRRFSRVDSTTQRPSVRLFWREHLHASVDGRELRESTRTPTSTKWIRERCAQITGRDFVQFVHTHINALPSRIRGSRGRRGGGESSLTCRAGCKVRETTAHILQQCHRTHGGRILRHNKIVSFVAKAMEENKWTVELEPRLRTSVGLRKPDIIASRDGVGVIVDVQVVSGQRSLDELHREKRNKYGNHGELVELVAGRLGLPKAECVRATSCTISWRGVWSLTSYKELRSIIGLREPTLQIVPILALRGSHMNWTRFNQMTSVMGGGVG

With linear 28S rDNA target, the binding signal (fraction of WT) in data set [1] came out at 0.76; in data set [2], 1.32; in data set [3], 0.87; with R2Bm protein (WT) it was 1.
